{"source": "the supplement of paper PMC7877785", "assay": "self-splicing fitness, log relative to wild type (ln ratio); higher = more splicing; Tetrahymena group I intron in knt gene, E. coli kanamycin selection, DiMSum; sequences stand for … in CUCUCU…GGAGGGAAAAGUUAUCAGGCAUGCACCUGGUAGCUAGUCUUUAAACCAAUAGAUUGCAUCGGUUUAAAAGGCAAGACCGUCAAAUUGCGGGAAAGGGGUCAACAGCCGUUCAGUACCAAGUCUCAGGGGAAACUUUGAGAUGGCCUUGCAAAGGGUAUGGUAAUAAGCUGACGGACAUGGUCCUAACCACGCAGCCAAGUCCUAAGUCAACAGAUCUUCUGUUGAUAUGGAUGCAGUUCACAGACUAAAUGUCGGUCGGGGAAGAUGUAUUCUUCUCAUAAGAUAUAGUCGGACCUCUCCUUAAUGGGAGCUAGCGGAUGAAGUGAUGCAACACUGGAGCCGCUGGGAACUAAUUUGUAUGCGAAAGUAUAUUGAUUAGUUUUGGAGUACUCGUGGUCG", "outline": "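The eight P1ex-region nucleotides of an intron in the knt kanamycin-resistance gene on pET-22b(+) were all randomised and the library put into E. coli BL21(DE3). Six replicate transformations were grown overnight at 37°C or 30°C on LB agar with or without 25 μg/mL kanamycin, together with 100 μg/mL carbenicillin, 50 μM IPTG and 0.2% rhamnose. Colonies were pooled and amplicon-sequenced on an Illumina HiSeq 2500. Fitness from DiMSum is the error-weighted combination of wild-type-normalised replicate fold changes, kanamycin over none.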", "note": "± gives the uncertainty stated by the source.", "data": [{"sequence": "UCCUAGCAAUAUUACGUCUC", "values": [{"measurement": "self-splicing fitness (ln)", "setting": "30 °C", "result": "-3.82 ± 0.23"}, {"measurement": "self-splicing fitness (ln)", "setting": "37 °C", "result": "-2.52 ± 0.21"}]}, {"sequence": "UCCUAGCAAUAUUACGUGGA", "values": [{"measurement": "self-splicing fitness (ln)", "setting": "30 °C", "result": "-2.37 ± 0.16"}, {"measurement": "self-splicing fitness (ln)", "setting": "37 °C", "result": "-2.74 ± 0.23"}]}, {"sequence": "UCCUAGCAAUAUUACGUGGC", "values": [{"measurement": "self-splicing fitness (ln)", "setting": "30 °C", "result": "-3.85 ± 0.24"}, {"measurement": "self-splicing fitness (ln)", "setting": "37 °C", "result": "-1.78 ± 0.2"}]}, {"sequence": "UCCUAGCAAUAUUACGUGGU", "values": [{"measurement": "self-splicing fitness (ln)", "setting": "30 °C", "result": "-2.53 ± 0.1"}, {"measurement": "self-splicing fitness (ln)", "setting": "37 °C", "result": "-1.38 ± 0.096"}]}, {"sequence": "UCCUAGCAAUAUUACGUUGA", "values": [{"measurement": "self-splicing fitness (ln)", "setting": "30 °C", "result": "-0.805 ± 0.071"}, {"measurement": "self-splicing fitness (ln)", "setting": "37 °C", "result": "0.0396 ± 0.089"}]}, {"sequence": "UCGAAGCAAUAUUACGAAAA", "values": [{"measurement": "self-splicing fitness (ln)", "setting": "30 °C", "result": "-3.1 ± 0.3"}, {"measurement": "self-splicing fitness (ln)", "setting": "37 °C", "result": "-1.54 ± 0.21"}]}, {"sequence": "UCGAAGCAAUAUUACGAAGG", "values": [{"measurement": "self-splicing fitness (ln)", "setting": "30 °C", "result": "-1.84 ± 0.21"}, {"measurement": "self-splicing fitness (ln)", "setting": "37 °C", "result": "-2.47 ± 0.33"}]}, {"sequence": "UCGAAGCAAUAUUACGAAUU", "values": [{"measurement": "self-splicing fitness (ln)", "setting": "30 °C", "result": "-3.1 ± 0.37"}, {"measurement": "self-splicing fitness (ln)", "setting": "37 °C", "result": "-2.21 ± 0.38"}]}, {"sequence": "UCGAAGCAAUAUUACGACGG", "values": [{"measurement": "self-splicing fitness (ln)", "setting": "30 °C", "result": "-1.8 ± 0.17"}, {"measurement": "self-splicing fitness (ln)", "setting": "37 °C", "result": "-0.892 ± 0.18"}]}, {"sequence": "UCGAAGCAAUAUUACGAGUC", "values": [{"measurement": "self-splicing fitness (ln)", "setting": "30 °C", "result": "-3.45 ± 0.42"}]}, {"sequence": "UCGAAGCAAUAUUACGAUGA", "values": [{"measurement": "self-splicing fitness (ln)", "setting": "30 °C", "result": "-0.316 ± 0.068"}, {"measurement": "self-splicing fitness (ln)", "setting": "37 °C", "result": "0.368 ± 0.074"}]}, {"sequence": "UCGAAGCAAUAUUACGCACA", "values": [{"measurement": "self-splicing fitness (ln)", "setting": "30 °C", "result": "-1.23 ± 0.13"}, {"measurement": "self-splicing fitness (ln)", "setting": "37 °C", "result": "-0.472 ± 0.16"}]}, {"sequence": "UCGAAGCAAUAUUACGCAUC", "values": [{"measurement": "self-splicing fitness (ln)", "setting": "30 °C", "result": "-1.47 ± 0.29"}, {"measurement": "self-splicing fitness (ln)", "setting": "37 °C", "result": "-2.36 ± 0.3"}]}, {"sequence": "UCGAAGCAAUAUUACGCCGU", "values": [{"measurement": "self-splicing fitness (ln)", "setting": "30 °C", "result": "-0.599 ± 0.12"}, {"measurement": "self-splicing fitness (ln)", "setting": "37 °C", "result": "-0.739 ± 0.12"}]}, {"sequence": "UCGAAGCAAUAUUACGCCUU", "values": [{"measurement": "self-splicing fitness (ln)", "setting": "30 °C", "result": "-3.4 ± 0.25"}, {"measurement": "self-splicing fitness (ln)", "setting": "37 °C", "result": "-3.23 ± 0.26"}]}, {"sequence": "UCGAAGCAAUAUUACGCGUU", "values": [{"measurement": "self-splicing fitness (ln)", "setting": "30 °C", "result": "-3.93 ± 0.21"}, {"measurement": "self-splicing fitness (ln)", "setting": "37 °C", "result": "-1.47 ± 0.18"}]}, {"sequence": "UCGAAGCAAUAUUACGCUAG", "values": [{"measurement": "self-splicing fitness (ln)", "setting": "30 °C", "result": "-2.16 ± 0.14"}, {"measurement": "self-splicing fitness (ln)", "setting": "37 °C", "result": "-0.234 ± 0.14"}]}, {"sequence": "UCGAAGCAAUAUUACGCUGG", "values": [{"measurement": "self-splicing fitness (ln)", "setting": "30 °C", "result": "-1.85 ± 0.13"}, {"measurement": "self-splicing fitness (ln)", "setting": "37 °C", "result": "-2.04 ± 0.16"}]}, {"sequence": "UCGAAGCAAUAUUACGGAAU", "values": [{"measurement": "self-splicing fitness (ln)", "setting": "30 °C", "result": "-3.57 ± 0.24"}, {"measurement": "self-splicing fitness (ln)", "setting": "37 °C", "result": "-1.91 ± 0.23"}]}, {"sequence": "UCGAAGCAAUAUUACGGGCG", "values": [{"measurement": "self-splicing fitness (ln)", "setting": "30 °C", "result": "0.0324 ± 0.093"}, {"measurement": "self-splicing fitness (ln)", "setting": "37 °C", "result": "-0.219 ± 0.1"}]}, {"sequence": "UCGAAGCAAUAUUACGUAUA", "values": [{"measurement": "self-splicing fitness (ln)", "setting": "30 °C", "result": "-3.1 ± 0.22"}, {"measurement": "self-splicing fitness (ln)", "setting": "37 °C", "result": "-1.58 ± 0.18"}]}, {"sequence": "UCGAAGCAAUAUUACGUCGU", "values": [{"measurement": "self-splicing fitness (ln)", "setting": "30 °C", "result": "-2.65 ± 0.2"}, {"measurement": "self-splicing fitness (ln)", "setting": "37 °C", "result": "-1.34 ± 0.15"}]}, {"sequence": "UCGAAGCAAUAUUACGUGAA", "values": [{"measurement": "self-splicing fitness (ln)", "setting": "30 °C", "result": "-2.53 ± 0.13"}, {"measurement": "self-splicing fitness (ln)", "setting": "37 °C", "result": "-1.13 ± 0.12"}]}, {"sequence": "UCGAAGCAAUAUUACGUGAU", "values": [{"measurement": "self-splicing fitness (ln)", "setting": "30 °C", "result": "-2.71 ± 0.16"}, {"measurement": "self-splicing fitness (ln)", "setting": "37 °C", "result": "-1.37 ± 0.17"}]}, {"sequence": "UCGCAGCAAUAUUACGAAAA", "values": [{"measurement": "self-splicing fitness (ln)", "setting": "30 °C", "result": "-3.16 ± 0.43"}, {"measurement": "self-splicing fitness (ln)", "setting": "37 °C", "result": "-2.2 ± 0.46"}]}, {"sequence": "UCGCAGCAAUAUUACGAGAU", "values": [{"measurement": "self-splicing fitness (ln)", "setting": "30 °C", "result": "-3.01 ± 0.25"}, {"measurement": "self-splicing fitness (ln)", "setting": "37 °C", "result": "-1.86 ± 0.25"}]}, {"sequence": "UCGCAGCAAUAUUACGAGCG", "values": [{"measurement": "self-splicing fitness (ln)", "setting": "30 °C", "result": "-1.97 ± 0.12"}, {"measurement": "self-splicing fitness (ln)", "setting": "37 °C", "result": "-0.806 ± 0.13"}]}, {"sequence": "UCGCAGCAAUAUUACGAGGC", "values": [{"measurement": "self-splicing fitness (ln)", "setting": "30 °C", "result": "-3.12 ± 0.24"}, {"measurement": "self-splicing fitness (ln)", "setting": "37 °C", "result": "-3.16 ± 0.26"}]}, {"sequence": "UCGCAGCAAUAUUACGAGGG", "values": [{"measurement": "self-splicing fitness (ln)", "setting": "30 °C", "result": "-2.72 ± 0.11"}, {"measurement": "self-splicing fitness (ln)", "setting": "37 °C", "result": "-1.65 ± 0.13"}]}, {"sequence": "UCGCAGCAAUAUUACGAUAA", "values": [{"measurement": "self-splicing fitness (ln)", "setting": "30 °C", "result": "-1.91 ± 0.14"}, {"measurement": "self-splicing fitness (ln)", "setting": "37 °C", "result": "-0.243 ± 0.14"}]}, {"sequence": "UCGCAGCAAUAUUACGCAGU", "values": [{"measurement": "self-splicing fitness (ln)", "setting": "30 °C", "result": "-3.58 ± 0.2"}, {"measurement": "self-splicing fitness (ln)", "setting": "37 °C", "result": "-2.35 ± 0.2"}]}, {"sequence": "UCGCAGCAAUAUUACGCCUA", "values": [{"measurement": "self-splicing fitness (ln)", "setting": "30 °C", "result": "-1.21 ± 0.13"}, {"measurement": "self-splicing fitness (ln)", "setting": "37 °C", "result": "0.0885 ± 0.14"}]}, {"sequence": "UCGCAGCAAUAUUACGCCUU", "values": [{"measurement": "self-splicing fitness (ln)", "setting": "30 °C", "result": "-1.44 ± 0.12"}, {"measurement": "self-splicing fitness (ln)", "setting": "37 °C", "result": "-0.631 ± 0.15"}]}, {"sequence": "UCGCAGCAAUAUUACGCGAA", "values": [{"measurement": "self-splicing fitness (ln)", "setting": "30 °C", "result": "-1.65 ± 0.23"}, {"measurement": "self-splicing fitness (ln)", "setting": "37 °C", "result": "-2.45 ± 0.25"}]}, {"sequence": "UCGCAGCAAUAUUACGCGCA", "values": [{"measurement": "self-splicing fitness (ln)", "setting": "30 °C", "result": "-0.382 ± 0.091"}, {"measurement": "self-splicing fitness (ln)", "setting": "37 °C", "result": "-0.601 ± 0.078"}]}, {"sequence": "UCGCAGCAAUAUUACGGACG", "values": [{"measurement": "self-splicing fitness (ln)", "setting": "30 °C", "result": "-1.44 ± 0.15"}, {"measurement": "self-splicing fitness (ln)", "setting": "37 °C", "result": "-0.806 ± 0.13"}]}, {"sequence": "UCGCAGCAAUAUUACGGAGG", "values": [{"measurement": "self-splicing fitness (ln)", "setting": "30 °C", "result": "-3.71 ± 0.18"}, {"measurement": "self-splicing fitness (ln)", "setting": "37 °C", "result": "-2.05 ± 0.15"}]}]}
